Consider one molecule from paper PMC12205646.

The target of this assay is Hsp90-CYF61 homodimer (used as WT in the ATPase assays) (S. cerevisiae) (UniProt P02829).
Chain of UniProt P02829 (P02829 whole entry): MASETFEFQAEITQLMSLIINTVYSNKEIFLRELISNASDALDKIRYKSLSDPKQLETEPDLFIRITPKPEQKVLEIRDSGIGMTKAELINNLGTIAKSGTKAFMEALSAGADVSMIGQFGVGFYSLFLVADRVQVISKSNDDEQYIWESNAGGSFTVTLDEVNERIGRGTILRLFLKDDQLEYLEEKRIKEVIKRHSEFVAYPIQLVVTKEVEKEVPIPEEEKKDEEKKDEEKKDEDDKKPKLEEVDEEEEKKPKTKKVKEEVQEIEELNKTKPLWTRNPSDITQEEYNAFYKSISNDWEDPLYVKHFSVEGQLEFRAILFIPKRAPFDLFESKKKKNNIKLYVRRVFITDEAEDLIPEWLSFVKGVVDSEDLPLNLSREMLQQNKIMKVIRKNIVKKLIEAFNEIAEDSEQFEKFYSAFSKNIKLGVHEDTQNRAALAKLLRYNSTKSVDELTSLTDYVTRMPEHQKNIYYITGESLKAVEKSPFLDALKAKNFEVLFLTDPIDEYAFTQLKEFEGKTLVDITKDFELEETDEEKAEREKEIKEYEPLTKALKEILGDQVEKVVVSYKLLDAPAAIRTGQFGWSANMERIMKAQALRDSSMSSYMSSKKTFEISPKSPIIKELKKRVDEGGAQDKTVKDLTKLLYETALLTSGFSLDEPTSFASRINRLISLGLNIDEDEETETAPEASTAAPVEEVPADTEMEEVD

B1: Aha1 (activator of Hsp90 activity 1) cochaperone (natural protein)
chain: MVVNNPNNWHWVDKNCIGWAKEYFKQKLVGVEAGSVKDKKYAKIKSVSSIEGDCEVNQRKGKVISLFDLKITVLIEGHVDSKDGSALPFEGSINVPEVAFDSEASSYQFDISIFKETSELSEAKPLIRSELLPKLRQIFQQFGKDLLATHGNDIQVPESQVKSNYTRGNQKSSFTEIKDSASKPKKNALPSSTSTSAPVSSTNKVPQNGSGNSTSIYLEPTFNVPSSELYETFLDKQRILAWTRSAQFFNSGPKLETKEKFELFGGNVISELVSCEKDKKLVFHWKLKDWSAPFNSTIEMTFHESQEFHETKLQVKWTGIPVGEEDRVRANFEEYYVRSIKLTFGFGAVL
Take B1: the stimulation of Hsp90 ATPase activity by Aha1 (ATP-regenerating coupled enzyme assay; 6 uM Aha1, 2 uM Hsp90 dimer) was 20 fold.
